The target of assay [1] is Agp2, full length wild-type A. fabrum phytochrome, labeled with Atto-495 (Agrobacterium fabrum). As to the kind of experiment: FRET or BRET. (BRET reads energy transfer from a luciferase to a nearby fluorophore.)
The target in a further assay is T1, Agp2 (Agrobacterium fabrum, UniProt A9CI81).
T1 construct: gene Atu2165; full length (PAS-GAF-PHY-histidine kinase-response regulator), C-terminal His6, E. coli DH5-alpha, pAg2 (pET21b-based), purified apoprotein, homodimer
T1 sequence (A9CI81 1-850): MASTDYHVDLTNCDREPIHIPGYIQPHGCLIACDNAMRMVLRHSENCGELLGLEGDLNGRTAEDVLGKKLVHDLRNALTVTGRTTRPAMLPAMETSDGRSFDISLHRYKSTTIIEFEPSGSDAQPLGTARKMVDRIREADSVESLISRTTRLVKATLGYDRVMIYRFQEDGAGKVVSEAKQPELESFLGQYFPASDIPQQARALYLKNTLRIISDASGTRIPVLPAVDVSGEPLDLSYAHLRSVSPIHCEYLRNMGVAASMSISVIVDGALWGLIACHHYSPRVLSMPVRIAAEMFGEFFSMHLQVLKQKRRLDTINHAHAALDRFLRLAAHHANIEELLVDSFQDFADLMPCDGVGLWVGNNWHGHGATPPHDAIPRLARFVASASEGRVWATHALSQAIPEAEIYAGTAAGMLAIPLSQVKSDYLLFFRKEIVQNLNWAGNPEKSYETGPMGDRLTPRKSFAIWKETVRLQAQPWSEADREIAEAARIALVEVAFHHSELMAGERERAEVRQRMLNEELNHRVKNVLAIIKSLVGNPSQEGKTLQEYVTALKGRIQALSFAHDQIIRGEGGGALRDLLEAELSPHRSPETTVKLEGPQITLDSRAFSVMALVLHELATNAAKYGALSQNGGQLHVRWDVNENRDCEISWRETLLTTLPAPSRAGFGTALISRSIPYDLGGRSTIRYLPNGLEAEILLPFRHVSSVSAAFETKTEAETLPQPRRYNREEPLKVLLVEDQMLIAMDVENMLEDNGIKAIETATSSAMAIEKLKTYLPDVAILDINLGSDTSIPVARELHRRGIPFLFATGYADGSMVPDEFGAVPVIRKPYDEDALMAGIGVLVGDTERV
As to the kind of experiment: UV/vis absorbance after chromophore assembly and desalting. The format is binding. Particulars: covalent (Cys13); threefold molar excess BV, 2 h, RT, pH 7.8, 1 mM TCEP; Atto-495 labelled afterwards.

For the next assay, the target named is T2, Agp2-PCM (Agrobacterium fabrum, UniProt A9CI81).
T2 construct: gene Atu2165; photosensory chromophore module (PAS, GAF, PHY)
T2 sequence (A9CI81 1-501): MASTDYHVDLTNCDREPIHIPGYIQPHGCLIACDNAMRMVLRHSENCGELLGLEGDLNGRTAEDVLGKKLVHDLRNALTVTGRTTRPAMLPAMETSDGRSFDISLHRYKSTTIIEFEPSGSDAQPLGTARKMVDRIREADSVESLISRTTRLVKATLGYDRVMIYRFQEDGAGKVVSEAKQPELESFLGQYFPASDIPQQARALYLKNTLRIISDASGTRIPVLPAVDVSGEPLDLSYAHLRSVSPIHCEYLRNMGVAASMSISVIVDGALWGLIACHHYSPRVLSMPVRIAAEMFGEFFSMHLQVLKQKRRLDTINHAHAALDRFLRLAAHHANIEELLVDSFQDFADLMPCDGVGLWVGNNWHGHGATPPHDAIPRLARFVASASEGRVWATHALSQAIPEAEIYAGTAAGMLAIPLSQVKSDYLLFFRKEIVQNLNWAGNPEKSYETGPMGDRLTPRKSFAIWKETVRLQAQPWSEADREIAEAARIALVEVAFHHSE
The assay is described as above. Particulars: covalent (Cys13); threefold molar excess BV, 2 h, RT, pH 7.8, 1 mM TCEP; Atto-495 labelled afterwards. In kind it is binding.

For assay [2], the target named is Agp2-PCM, photosensory chromophore module of Agp2, labeled with Atto-495 (Agrobacterium fabrum). In words: FRET or BRET.

In assay [1], “Agp1 A362C, full-length A. fabrum phytochrome Agp1 mutant labeled with Atto-565 (natural protein)” registered an E FRET (FRET transfer efficiency) of 0.1.
“Agp1 R535C, full-length A. fabrum phytochrome Agp1 mutant labeled with Atto-565 (natural protein)” showed an E FRET (FRET transfer efficiency) in assay [1] of 0.21.
`C=CC1=C(C)/C(=C/C2=NC(=C\c3[nH]c(/C=C4\NC(=O)C(C)=C4C=C)c(C)c3CCC(=O)O)/C(CCC(=O)O)=C2C)NC1=O` [Biliverdin]: the Agp2 on Agp2 was 0.70 ± 0.04 mol/mol. The “Agp2 PCM” value on Agp2-PCM is reported as 0.98 ± 0.01 mol/mol.
“Agp1 K517C, full-length A. fabrum phytochrome Agp1 mutant labeled with Atto-565 (natural protein)”: the E FRET (FRET transfer efficiency) came out at 0.15 in assay [1] and 0.14 in assay [2].
As to “Agp1 K554C, full-length A. fabrum phytochrome Agp1 mutant labeled with Atto-565 (natural protein)”, the E FRET (FRET transfer efficiency) in assay [1] was determined as 0.28.
Still for that read-out and setting: next, “Agp1 S122C, full-length A. fabrum phytochrome Agp1 mutant labeled with Atto-565 (natural protein)”: 0.09; “Agp1 R603C, full-length A. fabrum phytochrome Agp1 mutant labeled with Atto-565 (natural protein)”: 0.2.

Values taken from article PMC11931990, “Interaction between bacterial phytochromes Agp1 and Agp2 of Agrobacterium fabrum by fluorescence resonance energy transfer and docking studies” (Febs Letters, 2025).
